Results: the supplement of paper PMC5998384

Tests used:
HeLa Kyoto [1] = test: solubility change mitosis vs G1/S (difference of NP-40 vs SDS log2 ratios) (log2 ratio difference); higher = more soluble in mitosis
HeLa Kyoto [2] = test: solubility in G1/S (NP-40 vs SDS abundance) (log2 ratio); higher = more soluble; details: cell cycle stage: G1/S
HeLa Kyoto [3] = test: melting temperature (median over replicates), in situ; higher = more thermally stable
HeLa Kyoto [4] = test: thermal stability score vs G1/S (z-score of summed log2 fold changes over temperatures); higher = more thermally stable than in G1/S
[5] = cell cycle stage: early G1 (4.5 h after nocodazole release)
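Throughout, for melting temperature (median over replicates), in situ: HeLa Kyoto cells synchronized by double thymidine or nocodazole block, proteins quantified by TMT10plex mass spectrometry, three independent biological replicates.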
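Throughout, for solubility change mitosis vs G1/S (difference of NP-40 vs SDS log2 ratios): synchronized HeLa Kyoto cells (double thymidine block for G1/S, nocodazole release for mitosis), protein amounts in NP-40 versus SDS lysates quantified by mass spectrometry, three biological replicates.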
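Throughout, for solubility in G1/S (NP-40 vs SDS abundance): HeLa Kyoto cells arrested at G1/S by double thymidine block, proteins quantified by TMT10plex mass spectrometry in mild NP-40 versus SDS extracts, three biological replicates.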
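Throughout, for thermal stability score vs G1/S (z-score of summed log2 fold changes over temperatures): synchronized HeLa Kyoto cells, proteins quantified by TMT10plex mass spectrometry, three biological replicates, mitosis taken 0.5 h after nocodazole release, G1/S directly after double thymidine block.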

Row | Sequence | solubility change mitosis (log2) (HeLa Kyoto [1]) | solubility in G1/S (log2) (HeLa Kyoto [2]) | melting temperature (HeLa Kyoto [3]; cell cycle stage: G1/S) [°C] | melting temperature (HeLa Kyoto [3]; cell cycle stage: mitosis) [°C] | thermal stability score (HeLa Kyoto [4]; [5]) | thermal stability score (HeLa Kyoto [4]; cell cycle stage: mitosis)
1 | MKKASRSVGSVPKVSAISKTQTAEKIKPENSSSASTGGKLVKPGTAASLSKTKSSDDLLAGMAGGVTVTNGVKGKKSTCPSAAPSASAPAMTTVENKSKISTGTASSTKRSTSTGNKESSSTRERLRERTRLNQSKKLPSAGQGANDMALAKRSRSRTATECDVRMSKSKSDNQISDRAALEAKVKDLLTLAKTKDVEILHLRNELRDMRAQLGINEDHSEGDEKSEKETIMAHQPTDVESTLLQLQEQNTAIREELNQLKNENRMLKDRLNALGFSLEQRLDNSEKLFGYQSLSPEITPGNQSDGGGTLTSSVEGSAPGSVEDLLSQDENTLMDHQHSNSMDNLDSECSEVYQPLTSSDDALDAPSSSESEGIPSIERSRKGSSGNASEVSVACLTERIHQMEENQHSTSEELQATLQELADLQQITQELNSENERLGEEKVILMESLCQQSDKLEHFSRQIEYFRSLLDEHHISYVIDEDVKSGRYMELEQRYMDLAENARFEREQLLGVQQHLSNTLKMAEQDNKEAQEMIGALKERSHHMERIIESEQKGKAALAATLEEYKATVASDQIEMNRLKAQLENEKQKVAELYSIHNSGDKSDIQDLLESVRLDKEKAETLASSLQEDLAHTRNDANRLQDAIAKVEDEYRAFQEEAKKQIEDLNMTLEKLRSDLDEKETERSDMKETIFELEDEVEQHRAVKLHDNLIISDLENTVKKLQDQKHDMEREIKTLHRRLREESAEWRQFQADLQTAVVIANDIKSEAQEEIGDLKRRLHEAQEKNEKLTKELEEIKSRKQEEERGRVYNYMNAVERDLAALRQGMGLSRRSSTSSEPTPTVKTLIKSFDSASQVPNPAAAAIPRTPLSPSPMKTPPAAAVSPMQRHSISGPISTSKPLTALSDKRPNYGEIPVQEHLLRTSSASRPASLPRVPAMESAKTLSVSRRSSEEVKRDISAQEGASPASLMAMGTTSPQLSLSSSPTASVTPTTRSRIREERKDPLSALAREYGGSKRNALLKWCQKKTEGYQNIDITNFSSSWNDGLAFCALLHTYLPAHIPYQELNSQDKRRNFMLAFQAAESVGIKSTLDINEMVRTERPDWQNVMLYVTAIYKYFET [SPECC1L] | 0.448 | -0.183 | 50.8 | 50.7 | 0.147 | -0.333
2 | MSASGVLSFTQQGWEQVLAKVKRAVVYLDAACAESLHWGCGSTRLLEAVGGPDCHLREFEPDAIGGGAKQPKAVFVLSCLLKGRTVEILRDIICRSHFQYCVVVTTVSHAVHLTANHVPAAAAAEMEGQQPVFEQLEEKLCEWMGNMNYTAEVFHVPLLLAPVAPHFALTPAFASLFPLLPQDVHLLNSARPDKRKLGSLGDVDSTTLTPELLLQIRCLVSGLSSLCEHLGVREECFAVGSLSQVIAADLANYAPAKNRKKTAAGRASVVFVDRTLDLTGAVGHHGDNLVEKIISALPQLPGHTNDVMVNMIALTALHTEEENYNVVAPGCLSQSSDTTAKALWEALLNTKHKEAVMEVRRHLVEAASRENLPIKMSMGRVTPGQLMSYIQLFKNNLKALMNHCGLLQLGLATAQTLKHPQTAKWDNFLAFERLLLQSIGESAMSVVLNQLLPMIKPVTQRTNEDYSPEELLILLIYIYSVTGELTVDKDLCEAEEKVKKALAQVFCEESGLSPLLQKITDWDSSINLTFHKSKIAVDELFTSLRDIAGARSLLKQFKSVYVPGNHTHQASYKPLLKQVVEEIFHPERPDSVDIEHMSSGLTDLLKTGFSMFMKVSRPHPSDYPLLILFVVGGVTVSEVKMVKDLVASLKPGTQVIVLSTRLLKPLNIPELLFATDRLHPDLGF [SCFD2] | -0.0249 | -0.12 | 49.8 | 49.9 | -0.157 | 0.192
3 | MSEASSEDLVPPLEAGAAPYREEEEAAKKKKEKKKKSKGLANVFCVFTKGKKKKGQPSSAEPEDAAGSRQGLDGPPPTVEELKAALERGQLEAARPLLALERELAAAAAAGGVSEEELVRRQSKVEALYELLRDQVLGVLRRPLEAPPERLRQALAVVAEQEREDRQAAAAGPGTSGLAATRPRRWLQLWRRGVAEAAEERMGQRPAAGAEVPESVFLHLGRTMKEDLEAVVERLKPLFPAEFGVVAAYAESYHQHFAAHLAAVAQFELCERDTYMLLLWVQNLYPNDIINSPKLVGELQGMGLGSLLPPRQIRLLEATFLSSEAANVRELMDRALELEARRWAEDVPPQRLDGHCHSELAIDIIQITSQAQAKAESITLDLGSQIKRVLLVELPAFLRSYQRAFNEFLERGKQLTNYRANVIANINNCLSFRMSMEQNWQVPQDTLSLLLGPLGELKSHGFDTLLQNLHEDLKPLFKRFTHTRWAAPVETLENIIATVDTRLPEFSELQGCFREELMEALHLHLVKEYIIQLSKGRLVLKTAEQQQQLAGYILANADTIQHFCTQHGSPATWLQPALPTLAEIIRLQDPSAIKIEVATYATCYPDFSKGHLSAILAIKGNLSNSEVKRIRSILDVSMGAQEPSRPLFSLIKVG [TNFAIP2] | -0.0517 | 0.296 | 50.4 | 48.2 | 0.545 | 1.06
4 | MAETEERSLDNFFAKRDKKKKKERSNRAASAAGAAGSAGGSSGAAGAAGGGAGAGTRPGDGGTASAGAAGPGAATKAVTKDEDEWKELEQKEVDYSGLRVQAMQISSEKEEDDNEKRQDPGDNWEEGGGGGGGMEKSSGPWNKTAPVQAPPAPVIVTETPEPAMTSGVYRPPGARLTTTRKTPQGPPEIYSDTQFPSLQSTAKHVESRKDKEMEKSFEVVRHKNRGRDEVSKNQALKLQLDNQYAVLENQKSSHSQYN [CDV3] | 0.0994 | -0.0527 | 57.2 | 53.4 | -2.3 | -4.45
5 | MGSPEDDLIGIPFPDHSSELLSCLNEQRQLGHLCDLTIRTQGLEYRTHRAVLAACSHYFKKLFTEGGGGAVMGAGGSGTATGGAGAGVCELDFVGPEALGALLEFAYTATLTTSSANMPAVLQAARLLEIPCVIAACMEILQGSGLEAPSPDEDDCERARQYLEAFATATASGVPNGEDSPPQVPLPPPPPPPPRPVARRSRKPRKAFLQTKGARANHLVPEVPTVPAHPLTYEEEEVAGRVGSSGGSGPGDSYSPPTGTASPPEGPQSYEPYEGEEEEEELVYPPAYGLAQGGGPPLSPEELGSDEDAIDPDLMAYLSSLHQDNLAPGLDSQDKLVRKRRSQMPQECPVCHKIIHGAGKLPRHMRTHTGEKPFACEVCGVRFTRNDKLKIHMRKHTGERPYSCPHCPARFLHSYDLKNHMHLHTGDRPYECHLCHKAFAKEDHLQRHLKGQNCLEVRTRRRRKDDAPPHYPPPSTAAASPAGLDLSNGHLDTFRLSLARFWEQSAPTGPPVSTPGPPDDDEEEGAPTTPQAEGAMESS [ZBTB7B] | 0.171 | -0.127 | 54.7 | 55 | 1.42 | 0.814
6 | MLRWLRDFVLPTAACQDAEQPTRYETLFQALDRNGDGVVDIGELQEGLRNLGIPLGQDAEEKIFTTGDVNKDGKLDFEEFMKYLKDHEKKMKLAFKSLDKNNDGKIEASEIVQSLQTLGLTISEQQAELILQSIDVDGTMTVDWNEWRDYFLFNPVTDIEEIIRFWKHSTGIDIGDSLTIPDEFTEDEKKSGQWWRQLLAGGIAGAVSRTSTAPLDRLKIMMQVHGSKSDKMNIFGGFRQMVKEGGIRSLWRGNGTNVIKIAPETAVKFWAYEQYKKLLTEEGQKIGTFERFISGSMAGATAQTFIYPMEVMKTRLAVGKTGQYSGIYDCAKKILKHEGLGAFYKGYVPNLLGIIPYAGIDLAVYELLKSYWLDNFAKDSVNPGVMVLLGCGALSSTCGQLASYPLALVRTRMQAQAMLEGSPQLNMVGLFRRIISKEGIPGLYRGITPNFMKVLPAVGISYVVYENMKQTLGVTQK [SLC25A24] | -0.0619 | 0.296 | 56.8 | 57.8 | -1.13 | -0.922
7 | MDAPGALAQTAAPGPGRKELKIVIVGDGGCGKTSLLMVYSQGSFPEHYAPSVFEKYTASVTVGSKEVTLNLYDTAGQEDYDRLRPLSYQNTHLVLICYDVMNPTSYDNVLIKWFPEVTHFCRGIPMVLIGCKTDLRKDKEQLRKLRAAQLEPITYMQGLSACEQIRAALYLECSAKFRENVEDVFREAAKVALSALKKAQRQKKRRLCLLL [RHOF] | -0.104 | -0.0436 | 53.8 | 53 | 0.493 | 0.369
8 | MWKASAGHAVSIAQDDAGADDWETDPDFVNDVSEKEQRWGAKTVQGSGHQEHINIHKLRENVFQEHQTLKEKELETGPKASHGYGGKFGVEQDRMDKSAVGHEYQSKLSKHCSQVDSVRGFGGKFGVQMDRVDQSAVGFEYQGKTEKHASQKDYSSGFGGKYGVQADRVDKSAVGFDYQGKTEKHESQRDYSKGFGGKYGIDKDKVDKSAVGFEYQGKTEKHESQKDYVKGFGGKFGVQTDRQDKCALGWDHQEKLQLHESQKDYKTGFGGKFGVQSERQDSAAVGFDYKEKLAKHESQQDYSKGFGGKYGVQKDRMDKNASTFEDVTQVSSAYQKTVPVEAVTSKTSNIRANFENLAKEKEQEDRRKAEAERAQRMAKERQEQEEARRKLEEQARAKTQTPPVSPAPQPTEERLPSSPVYEDAASFKAELSYRGPVSGTEPEPVYSMEAADYREASSQQGLAYATEAVYESAEAPGHYPAEDSTYDEYENDLGITAVALYDYQAAGDDEISFDPDDIITNIEMIDDGWWRGVCKGRYGLFPANYVELRQ [CTTN] | -0.0191 | -0.21 | 60.6 | 57.6 | -3.16 | -3.35
9 | MGVRGLQGFVGSTCPHICTVVNFKELAEHHRSKYPGCTPTIVVDAMCCLRYWYTPESWICGGQWREYFSALRDFVKTFTAAGIKLIFFFDGMVEQDKRDEWVKRRLKNNREISRIFHYIKSHKEQPGRNMFFIPSGLAVFTRFALKTLGQETLCSLQEADYEVASYGLQHNCLGILGEDTDYLIYDTCPYFSISELCLESLDTVMLCREKLCESLGLCVADLPLLACLLGNDIIPEGMFESFRYKCLSSYTSVKENFDKKGNIILAVSDHISKVLYLYQGEKKLEEILPLGPNKALFYKGMASYLLPGQKSPWFFQKPKGVITLDKQVISTSSDAESREEVPMCSDAESRQEVPMCTGPESRREVPVYTDSEPRQEVPMCSDPEPRQEVPTCTGPESRREVPMCSDPEPRQEVPMCTGPEARQEVPMYTDSEPRQEVPMYTDSEPRQEVPMYTGSEPRQEVPMYTGPESRQEVPMYTGPESRQEVLIRTDPESRQEIMCTGHESKQEVPICTDPISKQEDSMCTHAEINQKLPVATDFEFKLEALMCTNPEIKQEDPTNVGPEVKQQVTMVSDTEILKVARTHHVQAESYLVYNIMSSGEIECSNTLEDELDQALPSQAFIYRPIRQRVYSLLLEDCQDVTSTCLAVKEWFVYPGNPLRHPDLVRPLQMTIPGGTPSLKILWLNQEPEIQVRRLDTLLACFNLSSSREELQAVESPFQALCCLLIYLFVQVDTLCLEDLHAFIAQALCLQGKSTSQLVNLQPDYINPRAVQLGSLLVRGLTTLVLVNSACGFPWKTSDFMPWNVFDGKLFHQKYLQSEKGYAVEVLLEQNRSRLTKFHNLKAVVCKACMKENRRITGRAHWGSHHAGRWGRQGSSYHRTGSGYSRSSQGQPWRDQGPGSRQYEHDQWRRY [FAM120B] | -0.0624 | -0.319 | 50.2 | 49.1 | 1.29 | 1.3
